Measured values as given in patent publication US20220175647A1, “COSMETIC PREPARATION CONTAINING ULTRAVIOLET WAVELENGTH CONVERSION MATERIAL AND WATER-SOLUBLE THICKENING AGENT” (Shiseido Company, Ltd., priority 2019, published 2022).
“And” between values parts separate entries of the source, which are not always exact repeats. Identical values can stand only once.

Tests used:
[1] = Absorption and emission spectrum peak wavelengths of UV wavelength conversion substances; format: physicochemical
Human dermal fibroblasts [2] = test: Restoration of cell activity decreased by prior UV irradiation (AlamarBlue); format: cell-based; conditions: pre-irradiation 400 mJ/cm^2 without substance, then UV 0 to 200 mJ/cm^2 through 0.4% or 2% C-phycocyanin; effect equivalent at both concentrations; FIG. 5
Description: (§1) 1. Human dermal fibroblasts and human skin keratinocytes purchased from Kurabo Industries Ltd. were used. A cell suspension (1 mL) stored in liquid nitrogen was thawed in a water bath (37° C.) to an extent that small ice pellets remained, and then diluted with 9 mL of warm medium. 2. The diluted suspension was mixed gently and then transferred to a T75 flask and incubated overnight at 37° C. 3. The next day, the medium was replaced with 10 mL of fresh medium. 4. The medium was replaced periodically (once every 2 days for fibroblasts and once every 2 to 3 days for keratinocytes) and cell proliferation was continued. Meanwhile, the cells were observed using a microscope, and it was confirmed that the cells grew in the correct form. 5. After the cells reached about 80% confluence, the cells were passaged. The cells were passaged by washing the cells once with 10 mL of warm PBS, adding 5 mL of warm trypsin to a T75 flask, covering the bottom of the flask with a trypsin solution, followed by aspirating at room temperature for 1 minute. 6. The flask was allowed to stand in an oven at 37° C. for (maximum) 2 minutes for fibroblasts and (maximum) 7 minutes for keratinocytes. The cells were observed using a microscope and confirmed to be small and oval. 7. Thereafter, the side of the T75 flask was lightly tapped to release the cells. […]

Human dermal fibroblasts [3] = test: Cell activity (AlamarBlue) of cells UV-irradiated through a solution of UV wavelength conversion substance; format: cell-based; conditions: UV 0 to 100 mJ/cm^2, FIG. 3
Description: The UV wavelength conversion substances (3) and (4) were dispersed in alcohol to prepare 5% and 10% dispersions.
as §1, with “7.” for “7. Thereafter, the side of the T75 flask was lightly tapped to release the cells.”

B-phycoerythrin
absorption spectrum peak wavelength [1]: 305 nm | emission spectrum peak wavelength [1]: 570 nm and 610 nm

C-phycocyanin
absorption spectrum peak wavelength [1]: 350 nm | emission spectrum peak wavelength [1]: 640 nm and 700 nm | cell activity after activity was once decreased by UV (Human dermal fibroblasts [2]): cell activity was recovered | cell activity (relative fluorescence intensity, AlamarBlue) (Human dermal fibroblasts [3]; 0.4% C-phycocyanin solution): the decrease in cell activity was suppressed | cell activity (relative fluorescence intensity, AlamarBlue) (Human dermal fibroblasts [3]; 2% C-phycocyanin solution, compared to no UV irradiation): the cell activity was even increased
